Target: Lactococcus lactis pyruvate carboxylase (Lactococcus lactis)
Experiment: cryo-EM structure; LlPC under reaction conditions: 0.1 uM LlPC, 2 mM acetyl-CoA, 20 mM pyruvate, 2 mM ATP, 10 mM KHCO3, 5 mM MgCl2, 2 mM DTT, 200 mM NaCl, 20 mM Tris pH 7.6; symmetry expansion, focused classification of BC and CT domains

Lactococcus lactis pyruvate carboxylase (enzyme)
stoichiometry N: 4
